Data from paper PMC7948760.
Where two headings read alike, the source gives them in different places. One block for each substance: values may come before it.

Legend:
[1] = biological target: OG488-TFPIα-BR, TFPIα-BR modified with Oregon Green488 maleimide (human); experiment: fluorescence polarisation; steady-state anisotropy; FV species (0–100 nM) titrated into 20 nM OG488-TFPIα-BR and 50 μM PCPS, assay buffer (20 mM HEPES, 0.15 M NaCl, 5 mM CaCl2, 0.1% PEG 8000, pH 7.4), 25 °C; fit to independent, noninteracting sites
TFPIα (Homo sapiens) = TFPIα (Homo sapiens) (UniProt P10646); experiment: SPR; details: cited from earlier work
[2] = biological target: FV-short-RQ∗ (FV-short-RQ precleaved at Arg709 with thrombin) (human) (UniProt P12259); experiment: inhibition of prothrombinase (prothrombin activation assay); 0.1 nM cofactor species, 50 μM PCPS, 1.4 μM prothrombin, 3 μM DAPA, TFPIα 0–500 nM with a twofold excess of anti-K2 antibody to block FXa inhibition, started with 2 nM FXa, assay buffer, 25 °C; Ki from the equation for competitive inhibition
[3] = biological target: FV-short-QR∗ (FV-short-QR precleaved at Arg1545 with RVV-V) (human) (UniProt P12259); experiment: as above
[4] = biological target: FV-short-QQ (FV-short with Arg709 and Arg1545 replaced with Gln) (human); experiment: as above
[5] = biological target: activated factor V (FVa) (human) (UniProt P12259); experiment: as above
[6] = biological target: FV-short (factor V isoform with B-domain residues 756 to 1458 deleted) (human); experiment: as above
[7] = biological target: FV-short-RQ∗ (FV-short-RQ precleaved at Arg709 with thrombin) (human) (UniProt P12259); experiment: as above; remark: listed apart in the source
[8] = biological target: FV-short-QQ (FV-short with Arg709 and Arg1545 replaced with Gln) (human); experiment: as above; remark: listed apart in the source
[9] = biological target: FV-short (factor V isoform with B-domain residues 756 to 1458 deleted) (human); experiment: as above; remark: listed apart in the source
[10] = biological target: FV-short-QQ (FV-short with Arg709 and Arg1545 replaced with Gln) (human); experiment: fluorescence polarisation; competition: unlabeled TFPIα-BR (0–2 μM) or TFPIα (0–1 μM) titrated into 25 nM OG488-TFPIα-BR, 20 nM FV-short-QQ and 50 μM PCPS, assay buffer, 25 °C; stoichiometry of 1 assumed

FV-short-RQ∗ (FV-short-RQ precleaved at Arg709 with thrombin) (human), sequence (P12259 29-737, chain 1 of 2): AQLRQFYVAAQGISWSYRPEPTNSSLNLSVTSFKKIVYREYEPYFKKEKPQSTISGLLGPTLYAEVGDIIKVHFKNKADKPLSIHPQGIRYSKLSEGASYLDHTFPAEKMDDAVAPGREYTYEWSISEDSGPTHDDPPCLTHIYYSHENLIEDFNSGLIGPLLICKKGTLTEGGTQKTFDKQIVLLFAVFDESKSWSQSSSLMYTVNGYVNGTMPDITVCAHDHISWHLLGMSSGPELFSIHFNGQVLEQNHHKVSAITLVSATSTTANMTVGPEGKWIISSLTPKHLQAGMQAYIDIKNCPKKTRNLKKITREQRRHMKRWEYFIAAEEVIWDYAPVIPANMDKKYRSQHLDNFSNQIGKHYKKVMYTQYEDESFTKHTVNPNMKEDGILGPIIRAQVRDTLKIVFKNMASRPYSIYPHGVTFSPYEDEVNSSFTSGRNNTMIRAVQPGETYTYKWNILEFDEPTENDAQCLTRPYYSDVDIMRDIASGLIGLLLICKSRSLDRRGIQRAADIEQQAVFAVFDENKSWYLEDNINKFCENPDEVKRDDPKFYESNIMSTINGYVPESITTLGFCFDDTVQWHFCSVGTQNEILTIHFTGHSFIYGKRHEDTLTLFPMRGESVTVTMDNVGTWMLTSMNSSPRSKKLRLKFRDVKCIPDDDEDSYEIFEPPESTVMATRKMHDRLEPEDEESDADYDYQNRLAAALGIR
FV-short-RQ∗ (FV-short-RQ precleaved at Arg709 with thrombin) (human), sequence (P12259 other isoform, or with tags, fused parts or gaps, chain 2 of 2): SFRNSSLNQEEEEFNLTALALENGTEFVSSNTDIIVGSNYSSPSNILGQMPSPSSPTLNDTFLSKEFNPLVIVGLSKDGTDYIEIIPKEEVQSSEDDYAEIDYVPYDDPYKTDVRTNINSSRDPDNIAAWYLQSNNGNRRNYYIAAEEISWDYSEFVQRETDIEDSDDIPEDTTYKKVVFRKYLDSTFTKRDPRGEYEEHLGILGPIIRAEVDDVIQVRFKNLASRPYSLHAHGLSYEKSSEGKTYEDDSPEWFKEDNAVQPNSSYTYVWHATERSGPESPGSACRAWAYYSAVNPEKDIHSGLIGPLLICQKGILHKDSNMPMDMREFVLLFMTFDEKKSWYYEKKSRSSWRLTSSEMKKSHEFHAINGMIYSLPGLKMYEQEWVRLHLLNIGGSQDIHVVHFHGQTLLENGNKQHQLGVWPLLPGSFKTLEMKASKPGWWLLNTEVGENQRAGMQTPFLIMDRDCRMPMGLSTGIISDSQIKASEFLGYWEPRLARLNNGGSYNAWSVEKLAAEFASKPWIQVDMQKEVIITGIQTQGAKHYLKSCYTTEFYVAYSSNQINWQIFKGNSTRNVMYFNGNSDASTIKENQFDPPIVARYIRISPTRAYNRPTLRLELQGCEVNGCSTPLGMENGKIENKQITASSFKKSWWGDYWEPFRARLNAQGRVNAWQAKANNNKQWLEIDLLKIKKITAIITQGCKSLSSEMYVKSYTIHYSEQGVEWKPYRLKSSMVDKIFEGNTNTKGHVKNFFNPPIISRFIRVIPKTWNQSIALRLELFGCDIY
TFPIα (Homo sapiens), sequence (P10646 29-304): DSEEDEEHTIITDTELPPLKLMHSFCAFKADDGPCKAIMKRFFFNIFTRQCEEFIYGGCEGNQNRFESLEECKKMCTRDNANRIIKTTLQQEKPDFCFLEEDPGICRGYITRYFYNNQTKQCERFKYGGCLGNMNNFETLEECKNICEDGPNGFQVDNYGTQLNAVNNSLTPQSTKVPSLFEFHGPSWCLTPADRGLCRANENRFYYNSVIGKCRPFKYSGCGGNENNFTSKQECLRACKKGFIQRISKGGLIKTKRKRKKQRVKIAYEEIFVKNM
factor V, sequence (P12259 1574-2224): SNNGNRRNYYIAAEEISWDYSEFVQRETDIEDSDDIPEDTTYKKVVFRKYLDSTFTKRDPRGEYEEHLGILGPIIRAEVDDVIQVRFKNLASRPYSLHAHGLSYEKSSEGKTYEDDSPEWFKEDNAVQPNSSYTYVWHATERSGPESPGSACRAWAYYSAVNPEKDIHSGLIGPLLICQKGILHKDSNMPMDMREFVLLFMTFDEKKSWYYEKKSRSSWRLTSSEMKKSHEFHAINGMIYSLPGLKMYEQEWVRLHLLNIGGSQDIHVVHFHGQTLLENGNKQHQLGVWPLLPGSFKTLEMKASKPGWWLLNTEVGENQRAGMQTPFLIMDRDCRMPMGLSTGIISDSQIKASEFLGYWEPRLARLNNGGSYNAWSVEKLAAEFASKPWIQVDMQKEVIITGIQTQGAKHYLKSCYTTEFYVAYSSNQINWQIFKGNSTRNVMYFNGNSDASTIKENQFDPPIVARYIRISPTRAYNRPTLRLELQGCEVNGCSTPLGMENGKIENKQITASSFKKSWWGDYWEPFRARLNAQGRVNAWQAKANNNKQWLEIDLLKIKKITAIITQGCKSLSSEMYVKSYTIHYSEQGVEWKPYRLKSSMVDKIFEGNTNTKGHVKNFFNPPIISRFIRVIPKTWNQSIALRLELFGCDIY
FV-short-QR∗ (FV-short-QR precleaved at Arg1545 with RVV-V) (human), sequence (P12259 other isoform, or with tags, fused parts or gaps, chain 1 of 2): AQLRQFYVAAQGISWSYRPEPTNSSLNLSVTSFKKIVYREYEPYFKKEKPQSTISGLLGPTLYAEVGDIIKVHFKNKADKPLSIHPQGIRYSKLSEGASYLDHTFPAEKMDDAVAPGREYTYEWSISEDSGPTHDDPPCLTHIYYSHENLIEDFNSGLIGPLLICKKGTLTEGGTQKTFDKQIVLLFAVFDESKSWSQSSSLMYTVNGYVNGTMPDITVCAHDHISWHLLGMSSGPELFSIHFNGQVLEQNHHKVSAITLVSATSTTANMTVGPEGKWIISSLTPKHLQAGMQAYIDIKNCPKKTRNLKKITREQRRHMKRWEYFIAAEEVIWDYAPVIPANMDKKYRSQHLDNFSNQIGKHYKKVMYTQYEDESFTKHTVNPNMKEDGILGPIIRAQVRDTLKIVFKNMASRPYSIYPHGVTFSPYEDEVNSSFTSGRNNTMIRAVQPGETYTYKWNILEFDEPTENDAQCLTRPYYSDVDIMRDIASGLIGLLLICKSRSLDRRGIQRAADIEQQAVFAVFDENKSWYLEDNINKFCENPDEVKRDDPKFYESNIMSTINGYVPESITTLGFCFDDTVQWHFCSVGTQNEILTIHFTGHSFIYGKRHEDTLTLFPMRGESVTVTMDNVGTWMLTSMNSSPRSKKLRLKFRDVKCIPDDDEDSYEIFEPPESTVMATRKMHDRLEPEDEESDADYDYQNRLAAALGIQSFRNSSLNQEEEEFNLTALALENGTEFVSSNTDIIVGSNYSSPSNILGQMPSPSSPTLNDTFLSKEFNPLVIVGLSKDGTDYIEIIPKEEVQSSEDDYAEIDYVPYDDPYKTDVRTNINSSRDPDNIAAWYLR
FV-short-QR∗ (FV-short-QR precleaved at Arg1545 with RVV-V) (human), sequence (P12259 1574-2224, chain 2 of 2): as the sequence (P12259 1574-2224) above
activated factor V (FVa) (human), sequence (P12259 29-737, chain 1 of 2): as the sequence (P12259 29-737, chain 1 of 2) above
activated factor V (FVa) (human), sequence (P12259 1574-2224, chain 2 of 2): as the sequence (P12259 1574-2224) above

- stoichiometry N [1]: 1.25
Substance: FV-short (factor V isoform with B-domain residues 756 to 1458 deleted) (natural protein)

Substance: factor V (from UniProt P12259)
- Kd (TFPIα (Homo sapiens)): 13 nM

- Ki [2]: 0.24 nM
- Ki [3]: > 500 nM
- Ki [4]: 0.11 nM
- Ki [5]: > 500 nM
- Ki [6]: 0.23 nM
- Ki [7]: 0.26 nM
- Ki [8]: 0.1 nM
- Ki [9]: 0.14 nM
- Kd [10]: 0.73 nM
Substance: tissue factor pathway inhibitor alpha (TFPIα), full-length (from UniProt P10646-1 29-304) (natural protein)
